One assay concerns the target T1, I-Au molecule (Mus musculus, UniProt P06344+P14438).
T1 sequence (P06344 whole entry, looked up): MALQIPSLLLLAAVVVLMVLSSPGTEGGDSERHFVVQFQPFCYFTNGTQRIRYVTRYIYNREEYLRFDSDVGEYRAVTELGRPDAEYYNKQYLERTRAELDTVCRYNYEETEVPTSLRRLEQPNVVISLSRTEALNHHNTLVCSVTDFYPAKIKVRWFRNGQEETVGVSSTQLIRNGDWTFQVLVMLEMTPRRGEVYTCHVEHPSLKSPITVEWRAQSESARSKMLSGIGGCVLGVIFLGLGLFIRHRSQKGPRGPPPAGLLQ
T1 sequence (P14438 whole entry, looked up): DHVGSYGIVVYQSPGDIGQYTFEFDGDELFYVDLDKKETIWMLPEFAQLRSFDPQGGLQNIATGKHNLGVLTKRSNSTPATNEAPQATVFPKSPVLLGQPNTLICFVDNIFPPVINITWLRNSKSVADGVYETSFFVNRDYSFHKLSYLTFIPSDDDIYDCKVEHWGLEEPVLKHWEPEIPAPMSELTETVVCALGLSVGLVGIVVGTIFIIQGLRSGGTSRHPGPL
The note with it: cited from earlier work.

For assay [1] the following is noted: cited from earlier work.
The test system of another assay is A/J mice. The assay is described as follows: Induction and quantitation of autoimmune myocarditis in A/J mice. It counts as in vivo. The note with it: experiment 1; 100 μg myosin or 100 nmol peptide; H&E cross-sections, day 21.
For a further assay, the system named is Seu.5 T cells. The assay is described as follows: T cell hybridoma assay: IL-2 production by Seu.5 T cells. The conditions noted are these: APC pulsed with the peptide, tissue culture assay; data not shown. The class given is cell-based, A/J mice.
For assay [2], the target named is purified I-Ak molecules (mouse). The assay is described as follows: radioligand binding.
Assay [3] addresses I-Ak molecules on the surface of I-Ak-expressing M12.C3.F6 B-lymphoma cells (mouse). The assay can be described thus: SDS/PAGE stability assay.

“Also recorded” adds a separate entry of the source. Ends that are not written are not given here.

The values that follow come from publication PMC2192215 (The Journal of Experimental Medicine, 1995).

For “MBP(Ac1-11): myelin basic protein epitope (Ac-MGNHSGKRELS; UniProt P04370 1-11, looked up, fragment)”, the “binding to I-Au” value with I-Au molecule is given as “bound very weakly”. For the same molecule, the “induction of experimental autoimmune encephalomyelitis” value in assay [1] is on record as “could strongly induce experimental autoimmune”.

With DSAFDVLSFTAEEKAGVYK [myhca(334-352)], the “severity of myocarditis in photomicrographs (Fig. 4 B)” value with A/J mice is “Moderate; also recorded: Severe”.

Turning to SAFDVLSFTAEEKA [myhc0~(335-348)], the “stimulation of Seu.5 T cells by peptide-pulsed APC” value in the assay with Seu.5 T cells is given as “strongly stimulated”.

B1: myhc alpha(334-352) peptide, unlabeled (peptide)
peptide: DSAFDVLSFTAEEKAGVYK
For B1, the relative IC50 (relative to unlabeled HEL(YE52-61)) in assay [2] is 15.6.

B2: 125I-labeled HEL(48-61) (peptide)
peptide: DGSTDYGILQINSR
modifications: also: 125I-labeled, residue not given here
In turn, B2 came in with a percent SDS-stable I-Ak in assay [3] of 96%.

B3: 125I-labeled HEL(YE52-61) (peptide)
peptide: YEDYGILQINSR
modifications: also: 125I-labeled, residue not given here
Regarding B3, the maximum binding in the absence of competitors in assay [2] amounted to 148000 cpm.

B4: myhc alpha(334-352) peptide, radiolabeled (peptide)
peptide: DSAFDVLSFTAEEKAGVYK
modifications: not fully specified; also: radiolabel on Tyr, isotope not given here
On to B4, for which, in assay [3], the percent SDS-stable I-Ak turned out to be 50%.

B5: bovine RNase(43-56) (peptide)
peptide: VNTFVHESLADVQA
Regarding B5, the relative IC50 (relative to unlabeled HEL(YE52-61)) in assay [2] came out at 33.3.

B6: HEL(YE52-61), unlabeled (peptide)
peptide: YEDYGILQINSR
With B6, the relative IC50 (relative to unlabeled HEL(YE52-61)) in assay [2] was found to be 1.
